The data set “AUC” concerns the molecule itself. The data set is described as follows: AUC.
The data set “crystal structure” deals with the molecule itself. The data set is described as follows: crystal structure.
The data set “bead aggregation assay” concerns the molecule itself. The data set can be described thus: bead aggregation assay.

Substitutions are numbered along the chain they refer to. In names and notes the source's numbering stands. A value given as a limit tells only on which side of the number the result lay.

B1: PCDH1 EC1-5 C375S C548S (domain or fragment)
chain: TRVVYKVPEEQPPNTLIGSLAADYGFPDVGHLYKLEVGAPYLRVDGKTGDIFTTETSIDREGLRECQNQLPGDPCILEFEVSITDLVQNGSPRLLEGQIEVQDINDNTPNFASPVITLAIPENTNIGSLFPIPLASDRDAGPNGVASYELQAGPEAQELFGLQVAEDQEEKQPQLIVMGNLDRERWDSYDLTIKVQDGGSPPRASSALLRVTVLDTNDNAPKFERPSYEAELSENSPIGHSVIQVKANDSDQGANAEIEYTFHQAPEVVRRLLRLDRNTGLITVQGPVDREDLSTLRFSVLAKDRGTNPKSARAQVVVTVKDMNDNAPTIEIRGIGLVTHQDGMANISEDVAEETAVALVQVSDRDEGENAAVTSVVAGDVPFQLRQASETGSDSKKKYFLQTTTPLDYEKVKDYTIEIVAVDSGNPPLSSTNSLKVQVVDVNDNAPVFTQSVTEVAFPENNKPGEVIAEITASDADSGSNAELVYSLEPEPAAKGLFTISPETGEIQVKTSLDREQRESYELKVVAADRGSPSLQGTATVLVNVLDSNDND
With B1, in the data set “AUC”, the Kd is less than 5 µM and the “stoichiometry N” value was found to be 2.

B2: PCDH1 EC1-5 C375S C548S V115R (domain or fragment)
chain: B1 chain with V115R
For B2, in “AUC”, the “stoichiometry N” value was found to be 2.

B3: hs PCDH1 EC1-4bc (domain or fragment)
chain: TRVVYKVPEEQPPNTLIGSLAADYGFPDVGHLYKLEVGAPYLRVDGKTGDIFTTETSIDREGLRECQNQLPGDPCILEFEVSITDLVQNGSPRLLEGQIEVQDINDNTPNFASPVITLAIPENTNIGSLFPIPLASDRDAGPNGVASYELQAGPEAQELFGLQVAEDQEEKQPQLIVMGNLDRERWDSYDLTIKVQDGGSPPRASSALLRVTVLDTNDNAPKFERPSYEAELSENSPIGHSVIQVKANDSDQGANAEIEYTFHQAPEVVRRLLRLDRNTGLITVQGPVDREDLSTLRFSVLAKDRGTNPKSARAQVVVTVKDMNDNAPTIEIRGIGLVTHQDGMANISEDVAEETAVALVQVSDRDEGENAAVTCVVAGDVPFQLRQASETGSDSKKKYFLQTTTPLDYEKVKDYTIEIVAVDSGNPPLSSTNSLKVQVVDVNDNA
For the protein B3, the binding result in “crystal structure” was “binds”.

B4: PCDH1 EC1-4 C375S (domain or fragment)
chain: B3 chain with C375S
Regarding B4, in the data set “AUC”, the Kd was less than 5 µM and the “stoichiometry N” value is 2.

B5: hs PCDH1 EC1-4mc (domain or fragment)
chain: B3 chain
modifications: sugars observed at N248 (N-linked) and S430 (O-linked)
As to B5, the binding result in “crystal structure” is “binds”.

B6: PCDH1 EC1-4Fc (Fc fusion)
chain: B3 chain
On to B6, for which, in “bead aggregation assay”, the binding result was “binds”.

B7: PCDH1 EC1-7Fc (Fc fusion)
chain: TRVVYKVPEEQPPNTLIGSLAADYGFPDVGHLYKLEVGAPYLRVDGKTGDIFTTETSIDREGLRECQNQLPGDPCILEFEVSITDLVQNGSPRLLEGQIEVQDINDNTPNFASPVITLAIPENTNIGSLFPIPLASDRDAGPNGVASYELQAGPEAQELFGLQVAEDQEEKQPQLIVMGNLDRERWDSYDLTIKVQDGGSPPRASSALLRVTVLDTNDNAPKFERPSYEAELSENSPIGHSVIQVKANDSDQGANAEIEYTFHQAPEVVRRLLRLDRNTGLITVQGPVDREDLSTLRFSVLAKDRGTNPKSARAQVVVTVKDMNDNAPTIEIRGIGLVTHQDGMANISEDVAEETAVALVQVSDRDEGENAAVTCVVAGDVPFQLRQASETGSDSKKKYFLQTTTPLDYEKVKDYTIEIVAVDSGNPPLSSTNSLKVQVVDVNDNAPVFTQSVTEVAFPENNKPGEVIAEITASDADSGSNAELVYSLEPEPAAKGLFTISPETGEIQVKTSLDREQRESYELKVVAADRGSPSLQGTATVLVNVLDCNDNDPKFMLSGYNFSVMENMPALSPVGMVTVIDGDKGENAQVQLSVEQDNGDFVIQNGTGTILSSLSFDREQQSTYTFQLKAVDGGVPPRSAYVGVTINVLDENDNAPYITAPSNTSHKLLTPQTRLGETVSQVAAEDFDSGVNAELIYSIAGGNPYGLFQIGSHSGAITLEKEIERRHHGLHRLVVKVSDRGKPPRYGTALVHLYVNETLANRTLLETLLGHSLDTPLDIDIAGDPEYERSKQRGN
With B7, the binding result in “bead aggregation assay” is “binds”.

B8: PCDH1 EC1-7Fc C375S C548S (Fc fusion)
chain: B7 chain with C375S, C548S
As to B8, in “bead aggregation assay”, the binding result is recorded as “binds”.

B9: PCDH1 EC1-7Fc V115R (Fc fusion)
chain: B7 chain with V115R
For the protein B9, the binding result in the data set “bead aggregation assay” is recorded as “binds”.

One may read the Kd as the concentration at which binding is half-saturated. By stoichiometry N is commonly meant a count of units in the complex or per binding partner.

Source of the values: paper doi:10.1101/498196 (bioRxiv, 2018).
